Tests used:
[1] = target: CiaR, phosphorylated (Streptococcus suis (WT strain, name not in the material)) (UniProt A0A0H3MUU9); assay: BLI; settings: EMSA: Beyotime EMSA binding buffer, 20 min, room temperature, 4% native PAGE; proteins dialyzed in 25 mM Tris pH 7.4, 150 mM NaCl, 5% glycerol, 0.5 mM EDTA …
[2] = target: SatR (Streptococcus suis (WT strain, name not in the material)) (UniProt G9CHX9); assay: BLI; settings: EMSA: Beyotime EMSA binding buffer, 20 min, room temperature, 4% native PAGE; proteins dialyzed in 25 mM Tris pH 7.4, 150 mM NaCl, 5% glycerol, 0.5 mM EDTA …
SatR [3] = target: T1, SatR (Streptococcus suis (WT strain, name not …, UniProt G9CHX9 1-149)); assay: EMSA; 200-800 ng SatR; EMSA: Beyotime EMSA binding buffer, 20 min, room temperature, 4% native PAGE; proteins dialyzed in 25 mM Tris pH 7.4, 150 mM NaCl, 5% glycerol, 0.5 mM EDTA, 1 mM DTT; BLI (Octet RED96) conditions not in material; settings: protein: recombinant; tags: C-terminal 6xHis (from primer; pET-30a(+)); chain copies: 2; label: biotin 3' end; blunt
SatR [4] = target: T1, SatR; assay: EMSA; 800 ng SatR; EMSA: Beyotime EMSA binding buffer, 20 min, room temperature, 4% native PAGE; proteins dialyzed in 25 mM Tris pH 7.4, 150 mM NaCl, 5% glycerol, 0.5 mM EDTA, 1 mM DTT; BLI (Octet RED96) conditions not in material; settings: protein: recombinant; tags: C-terminal 6xHis (from primer; pET-30a(+)); chain copies: 2; label: biotin 3' end; blunt

satAB promoter (Octet)
Kd [1]: 434 nM
Kd [2]: 61 nM

B1: satRAB promoter EMSA probe (dsDNA)
DNA 1: TTGACAATAGTTCTTAAGAGAACTATAATAGTTCTCATGGTAATTATTTTCGTAGAAAG
DNA 2: CTTTCTACGAAAATAATTACCATGAGAACTATTATAGTTCTCTTAAGAACTATTGTCAA
binding result (SatR [3]): binds

B2: satAB internal fragment (EMSAneg-satR) (dsDNA)
DNA 1: CTCGCTTGGCCTTGGTGACCATTGCTTCTACGCCAGTTGCCTTGATTGCCTTGGTCGTT
DNA 2: AACGACCAAGGCAATCAAGGCAACTGGCGTAGAAGCAATGGTCACCAAGGCCAAGCGAG
binding result (SatR [4]): no binding
